Results on one substance are retold here after US20220241413A1, “COMBINATION THERAPIES USING CD-38 ANTIBODIES” (Takeda Pharmaceutical Company Limited, priority 2019, published 2022).

Data set [1] in a line: AB79-2001 phase 1b study in SLE: safety. To be noted: 15 patients, data still blinded (AB79 or placebo). Format: in vivo, human. An excerpt:
AB79-2001 is a double-blind, placebo-controlled phase 1b study in patients with moderate to severe SLE. As of the clinical data cutoff, a total of 15 patients had received at least 1 dose of AB79 or placebo. Data is still blinded for this study. No new safety concerns have been identified.

Data set [2] in a line: AB79-1002 phase 1b study, AB79 with LenDex or VRd in NDMM: safety. Format: in vivo. The text has this:
This is a Phase 1b, open-label, multicenter study to evaluate the safety, efficacy, tolerability, and pharmacokinetics (PK) of AB79 when added to 1 of 2 standard backbone regimens (lenalidomide plus dexamethasone [LenDex] or bortezomib [Velcade] plus lenalidomide and dexamethasone [VRd]) in adult patients with newly diagnosed multiple myeloma (NDMM) for whom stem cell transplantation (SCT) is not planned as initial therapy. The dose and schedule for the backbone regimens (LenDex and VRd) are given in accordance with product labeling or standard medical practice. Treatment cycles are 28 days until disease progression (PD) or unacceptable toxicity occurs. Treatment may be discontinued for other reasons listed below. AB79 is supplied by the sponsor. Bortezomib, dexamethasone, and lenalidomide are standard-of-care agents that are supplied from commercial sources.
300 mg of AB79 is administered subcutaneously once weekly for 8 weeks (8 doses), once every 2 weeks for 16 weeks (8 doses), and once every 4 weeks thereafter until PD (in combination with backbone therapy). Backbone therapies (LenDex or VRd) are dosed in accordance with product labeling/local institutional practices. VRd is given with bortezomib weekly×3 weeks and LenDex in a standard 28 day cycle. Patients are evaluated from first dose of AB79 until 30 days after PD or until protocol-defined treatment discontinuation criteria are met.
Changes in clinical laboratory parameters (standard hematology and chemistry), vital sign, electrocardiogram (ECG) monitoring, and Eastern Cooperative Oncology Group (ECOG) performance status that are judged by the investigator as clinically significant are recorded both on the source documentation and in the electronic case report (eCRF) as an AE. Toxicities that occur during the DLT evaluation period are used for the purposes of defining DLT and for subsequent cohort expansion or dose modification decisions. DLTs are based on AB79-related toxicities.
The study was designed to determine the recommended phase 2 dose (RP2D) and to provide a preliminary assessment of the AB79 combinations against NDMM. Parameters such as safety, tolerability, pharmacokinetics (PK), pharmacodynamics (PD), and disease response were assessed.

Data set [3] can be described thus: Phase 1 study in healthy subjects (AB79-101): safety. Format: in vivo, human. The method, then:
In a phase 1 study in healthy subjects (Study AB79-101), AB79 reduced the levels of peripheral blood and natural killer (NK) cells >90% from baseline in all subjects receiving a single 0.06 mg/kg IV dose of AB79, with a maximum observed concentration (Cmax) of 0.1 μg/mL. (U.S. Pat. No. 8,362,211; U.S. International Patent Application Serial Nos. PCT/US2019/013547 and PCT/US2019/024431). […] Potent reduction of plasmablasts was observed across cohorts of patients in the RRMM trial (Study AB79-1501). […] Consequently, AB79 may be more efficient at eliminating cells expressing high levels of CD38, which could manifest as higher activity on tumor cells (e.g., improved and deeper response rates across a population of patients with myeloma).
AB79 IV reduced the levels of peripheral blood NK cells >90% from baseline levels in all subjects receiving a single 0.06 mg/kg IV dose, with a Cmax of 0.1 μg/mL. […] As a potent and convenient second-generation anti-CD38 mAb, AB79 SC warranted therapeutic development for the treatment of multiple myeloma (MM).

Where [4] appears, read: AB79 300 or 600 mg with LenDex or VRd, 10 patients enrolled.

Turning to “AB79: anti-CD38 monoclonal IgG1 antibody; heavy chain SEQ ID NO:11, light chain SEQ ID NO:12”, in data set [1], the “patients with a Grade 3 or higher TEAE or AEs leading to study drug discontinuation” value is listed as “No patient”. Moreover, in data set [2] (setting [4]), the “TEAE regardless of causality: abdominal pain” value was determined as 2 patients, the “TEAE regardless of causality: chills” value was 2 patients, the “TEAE regardless of causality: decreased lymphocyte count” value came to 5 patients and the “TEAE regardless of causality: diarrhea” value worked out at 3 patients. For the same substance, in data set [2] (setting [4]), the “TEAE regardless of causality: dysgeusia” value came out at 2 patients, the “TEAE regardless of causality: fatigue” value turned out to be 2 patients, the “TEAE regardless of causality: muscle spasms” value was found to be 2 patients and the “TEAE regardless of causality: nausea” value amounted to 2 patients. Also, in data set [2] (setting [4]), the “TEAE regardless of causality: neutropenia” value amounted to 2 patients, the “TEAE regardless of causality: peripheral edema” value was determined as 2 patients and the “TEAE regardless of causality: sinusitis” value came to 2 patients. In addition, in data set [2] (AB79 with LenDex or VRd), the “dose-limiting toxicities (DLTs)” value is reported as “No DLTs” and the “drug-related serious AEs, AEs that resulted in any drug discontinuation, or on-study deaths” value is on record as “no”. For the same substance, the “serious adverse events (SAEs)” value in data set [3] (74 healthy subjects, single IV or SC dose escalation) was “no serious adverse events”. In addition, the “neutrophil, lymphocyte, monocyte, RBC and platelet counts” value in data set [3] (healthy subjects, all dose cohorts) is “remained within normal ranges”.
